Source: patent US5451369A, “Bacteriocidal surfaces and articles with attached bacteriocin” (The State of Oregon Acting By and Through The State Board …, priority 1993, dated 1995)
Where no end group is shown, it is not given here.

Assays:
[1] = system: gram-positive spoilage and pathogenic bacteria; details: various foods (dairy, meats and others); cited from earlier work
[2] = Nisin adsorption to silicon wafers measured by ellipsometry (hydrophobic, silanized surface); assay type: physicochemical
Excerpt: (§1) This example is an investigation of the binding ability of nisin on hydrophilic surfaces and on such surfaces made strongly hydrophobic by silanization. As representative hydrophilic surfaces, we selected monocrystalline silicon because this material is homogeneous, has substantially no pores or surface cavities, and has optical properties amenable to analysis using a laser beam.
(§2) Optically flat, monocrystalline silicon wafers (Wacker Siltronic Corp., Portland, Oreg.) having 1-0-0 orientation and a resistivity of 0.1 to 0.16 ohm.cm were cut into 1×2 cm wafers using a tungsten knife. The wafer surfaces were polished to a mirror finish.
A second quantity of wafers was made hydrophobic by silanization with dichlorodimethylsilane according to Jonsson et al., J. Colloid Interface Sci. 90:148-163 (1982) .
Hydrophilicity and hydrophobicity were confirmed by contact angle analysis according to McGuire, J. Food Eng. 12:239-247 (1990), incorporated herein by reference. In brief, hydrophobicity was determined by measuring the nondispersive component of the work Wa^p required to remove water from a surface, wherein Wa^p is defined according to equation (1) in said McGuire reference. This value was gained using contact-angle methods, and all food-contact surfaces can be analyzed in this way. […] A low value indicates strong hydrophobicity and a high value indicates strong hydrophilicity. […]

[3] = Nisin adsorption to silicon wafers measured by ellipsometry (hydrophilic surface); assay type: physicochemical; details: hydrophilic silicon wafer; nisin concentration range 0.1 to 1.0 mg/mL
Excerpt: as §1, §2
A first quantity of wafers was made hydrophilic by oxidation wherein the wafers were immersed in a mixture of NH4 OH:H2 O2 :H2 O (1:1:5) at 80° C. for 15 minutes. The wafers were then rinsed using distilled deionized water followed by an immersion in HCl:H2 O2 :H2 O (1:1:5) for 15 minutes at 80° C. […]
Hydrophilicity and hydrophobicity were confirmed by contact angle analysis according to McGuire, J. Food Eng. […] In brief, hydrophobicity was determined by measuring the nondispersive component of the work Wa^p required to remove water from a surface, wherein Wa^p is defined according to equation (1) in said McGuire reference. This value was gained using contact-angle methods, and all food-contact surfaces can be analyzed in this way. […]

[4] = system: Pediococcus pentosaceus strain FBB61-2; assay: Bioassay of adsorbed nisin: wafers placed face down on seeded MRS agar, inhibition zones; assay type: cell-based; details: hydrophilic wafers with nisin adsorbed from 0.1 to 1.0 mg/mL solutions, 4° C. 24 hours then 37° C.
Description: The activity of adsorbed nisin was evaluated by a bioassay performed as follows: Petri dishes (150×25 mm) containing MRS agar (Difco, Detroit, Mich.) were seeded with 0.1% v/v of a standardized overnight culture of Pediococcus pentosaceus strain FBB61-2 bacteria. Silicon wafers having hydrophilic surfaces were prepared as described above. Such wafers were prepared with and without adsorbed nisin. Wafers were placed face down directly onto the seeded agar surfaces. The Petri dishes were then incubated at 4° C. for 24 hours, then incubated at 37° C.
Referring to FIG. 2, the silicon wafers numbered 1-10 were subjected to adsorption of nisin from 0.1 to 1.0 mg/mL nisin solutions, respectively (in 0.1 mg/mL increments). […] Qualitatively, it can be seen in FIG. 2 that the amount of nisin antimicrobial activity associated with the nisin-coated wafers (as indicated by the diameters of the respective inhibition zones) corresponds to the mass of nisin that actually adsorbed to the respective wafer as shown in FIG. 1; i.e., the smallest inhibition zone corresponded with the smallest adsorbed mass of nisin.

[5] = system: Pediococcus pentosaceus strain FBB61-2; assay: Desorption of nisin from wafers by rinsing, followed by agar-well diffusion assay; assay type: cell-based
Description: Nisin was adsorbed to hydrophilic and hydrophobic silicon wafers as described in example 1. We then attempted to desorb nisin from the wafers by placing 50 μL of 0.01M phosphate buffer (pH 6.0) containing 1% polyoxyethylene sorbitan (Tween 80) on each wafer and "agitating" the droplet over the entire wafer surface using a pipette tip. The 50 μL droplet was then transferred to 5.6-mm diameter wells that had been made in seeded agar. As controls, we also attempted to desorb nisin from nisin-coated wafers using the phosphate buffer without Tween 80.
In FIG. 3, the activity of desorbed nisin (from hydrophilic surfaces) is seen as inhibition zones in the agar-well diffusion assay. The amount of recovered nisin roughly corresponded to the relative mass of nisin initially adsorbed to the wafers, similar to the previously described relationships shown in FIGS. 1 and 2. The only exception was the inhibition zone of well 10, wherein the unusually small diameter of the inhibition zone resulted from most of the desorbed nisin being lost during manipulations.
It should be noted that the amount of nisin that became adsorbed onto the wafer surfaces was an amount sufficient for inhibition of susceptible bacteria. Commonly, about 100 Units/g are used in food products to prevent the outgrowth of gram-positive bacterial spores and vegetative cells. […]

[6] = high-potency grade from Aplin and Barrett Ltd.; cited from earlier work
[7] = cited from earlier work

Substance | control of gram-positive bacteria in foods [1] | reversal of adsorption in more dilute solution ([2]; hydrophilic and hydrophobic wafers, 12-hour post-adsorption exposure to buffer (FIG. 1 circles)) | upper limit (plateau) of adsorbed mass of nisin ([2]; hydrophobic (silanized) silicon wafer, pH 6.0 phosphate buffer, 8 hours contact, consistent with a monolayer) | adsorption plateau on hydrophilic surface [3] | diameter of inhibition zone around nisin-containing wafers [4] | desorption by rinsing with phosphate buffer without Tween 80 ([5]; 0.01M phosphate buffer pH 6.0, no Tween 80) | desorption by phosphate buffer containing Tween 80 ([5]; 0.01M phosphate buffer pH 6.0 with 1% Tween 80) | nominal nisin activity [6] | period of retained bacteriocidal activity ([7]; ambient temperatures (0°-40° C.)) | stability of activity at pH 11 ([7]; pH 11) | potency of purified dry powder on storage ([7]; refrigeration storage)
Pediocin AcH (KYYGNGVTCGKHSCSVDWGKATTCIINNGAMAWATGGHQGNHKC; ends and bridges not checked; cysteine pairing not given here; UniProt P29430 19-62, looked up) [wide-spectrum bacteriocin produced by lactic-acid bacteria, first identified in 1984] | efficacious in controlling a wide range of spoilage and pathogenic gram-positive bacteria |  |  |  |  |  |  |  |  |  | 
Pediocin PA1 (KYYGNGVTCGKHSCSVDWGKATTCIINNGAMAWATGGHQGNHKC; ends and bridges not checked; cysteine pairing not given here; UniProt P29430 19-62, looked up) [wide-spectrum bacteriocin produced by lactic-acid bacteria] | found to control gram-positive bacterial populations |  |  |  |  |  |  |  |  |  | 
nisin (ITSISLCTPGCKTGALMGCNMKTATCHCSIHVSK; ends and bridges not checked; also: five thioether crosslinks (ring bridges), places not given here; UniProt P13068 24-57, looked up) | effective in preserving these foods | does not appear to reverse | about 0.36 mg/cm^2 | did not attain a plateau value | generally proportional to the log10 concentration of the nisin solution | resistant to desorption | able to desorb nisin | 45.5×10^6 Units/g | 16-24 months | can be lost rapidly | retains its potency indefinitely
